Measurements published in US6878861B2, “Acyl coenzyme A thioesterases” (Washington State University Research Foundation, priority 2000, dated 2005).
Entries after “also recorded” stand apart in the source; their conditions may differ.

Experiment: Acyl-CoA thioesterase assay with radiolabeled acyl-CoA, lysate of cells over-expressing ACH1
Type: biochemical
Details: lysate of transfected E. coli cells
Description: In these assays, radiolabeled acyl-CoA is used as a substrate in which the [^14C] label is on the fatty acid portion of the molecule, and the enzyme activity is measured by the amount of labeled free fatty acid released by the action of the enzyme. Typically, the acyl group is palmitoyl-CoA (16:0 Co-A) or oleoyl-CoA (18:1-CoA). Because the reaction pH must be below 9, as a pH above this level causes base-catalyzed hydrolysis of the substrate, in most experiments the enzyme activity is measured between pH 7 and 9. The reactions are conducted at room temperature. The reaction volume is generally kept from about 32 μl to 100 μl. Although the reaction times may vary, typical incubation times are 10-15 minutes, which is sufficient for even small amounts of protein.
The protein solution to be assayed, which can be purified protein over-expressed in E. coli or unpurified protein in a plant extract or a plant subfraction, such as purified chloroplasts, is brought to the desired volume with buffer (20 mM Tris-HCl, pH 7.2, 200 mM NaCl and 1 mM EDTA). […] An 850 μl aliquot of the hexane phase is added to 3 ml BCS, and the amount of radioactivity determined in a scintillation counter.
The level of acyl-CoA thioesterase activity is determined by the amount of radioactivity that is found in the hexane phase. […]

B1: ACH1: Arabidopsis acyl-CoA thioesterase ACH1 (SEQ ID NO:5), expressed as fusion protein with a 6 histidine tag; assayed as cell lysate (protein, listed as Arabidopsis thaliana)
chain: MNTESVVEFLGNVTLLQRLPSSSLKRISEVVVFKGYDRGDYVVRENQNVDGVYFLLQGQAQVLRSAGEENYQEFPLKRYDFFGHGIFGDVYSADVVAVTELTCLLLMSDHRALLEIKSVSDSDKERCLVEDILYLEPLDLNVYRGFTPPNAPTYGKVYGGQLVGQALAAASKTVETMKIVHNFHCYFLLVGDINIPIIYDVNRLRDGNNFATRSVDARQKGKTIFTLFASFQKKQQGFIHQESTMPHTPAPETLLPREEMLERLVTEPLLPRDYRNQVATEISVPFPIDIRFCEPNRSTKQNKSPPRLKYWFRAKGKLSDDDQALHRCVVAFASDLIFATISLNPHRREGMSVAALSLDHSMWFHRPVRADDWLLFVIVSPTATESRGFATGKMFNRKGELVVSLTQEAVLREAVTIKPSFGAKL
For B1, the “acyl-CoA thioesterase activity of cell lysate compared with control plasmid cells” value was “no increased acyl-CoA thioesterase activity was observed in cell lysates; also recorded: no greater than the level of activity in cells transfected with a control plasmid”.
